Results taken from the nanobody polyreactivity screen of Harvey et al. (2022).

Assay: yeast display, Sf9 membrane polyspecificity reagent, FACS + sequencing; frameworks hold sequencing errors
Summary of the method: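 Galactose induction of a Saccharomyces cerevisiae BJ5465 synthetic nanobody display library ran 36–48 hours. The cells were then stained for 1 hour at 4 °C with 10% biotinylated, detergent-solubilized Sf9 membrane reagent, pulled down on streptavidin microbeads and FACS-sorted into low and high (top ~1%) gates on expression and reagent-binding fluorescence. Labels for polyreactivity follow the gate of origin.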

| Sequence | polyreactivity (PSR sort gate) |
| --- | --- |
| QVQLVESGGGLVQAGGSLRLSWAASGRILSANAMGWYRQAPGKERELVAAITYSGDNTYYADSVKGRFTISRDNAKNTVDVQMNSLKPEDTAVYYCAAVRYYAYLSSWRYDYWGQGTQVTVSS | low polyreactivity |
| QVQLVESGGGLVQAGGSLRLSCAASGSTFFKYAMGWYRQAPGKERELVAGITSDGSTNYADSVKGRFTISRDNAKNTVYLQMNSLKPEDTAVYYCAADGSKWGVGTYDYWGQGTQVTVSS | low polyreactivity |
| QVQLVESGGGLVQAGGSLRLSCAASGSIFRRNAMGWYRQAPGKERELVAGISGGGSTYYADSVKGRFTISRDNAKNTVYLQMNSLKPEDTAVYFCATDKHFRWAGFDYWGQGTQVTVSS | low polyreactivity |
| QVQLVESGGGLVQAGGSLRLSCAASGSIFTYYVMGWYRQAPGKERELVAGITGGGSTNYADSVKGRFTISRDNAKNTVYLQMNSLKPEDTAVYYCNAYEYLSAGYDYWGQGTQVTVSS | low polyreactivity |
| QVQLVESGGGLVQAGGSLRLSCAASGSIFYRYAMGWYRQAPGKVRELVAAINNGGGRTYADSVKGRFTISRDNAKNTVYFQMNSLKPEDTAVYYCAKRTSRLAPYDYWGQGTQVTVSS | high polyreactivity |
| QVQLVESGGGLVQAGGILSLSCADSGRIFDIYAMGWYRQAPGKERELVASISWSGDSTYYADSVKGRFTISRDNAKNTVYLQMNSLKPEDTAVYYCDAVGEDTEGYDFDYWGQGTQVTVSS | low polyreactivity |
| QVQLVESGGGLDQAGGSLRLSFAASGLIFAVYAMGWYRQAPGKERELVAGISASAASTYYADSVKGRFTISRDNAKNTVYLQMNSLKPEDTAVYYCAAGFYRRGKYDYWGQGTQVTVSS | high polyreactivity |
| QDQLVESVGGLVQAGGSLRLSCAASGRIVKYAMGWYRQAPGKERELVAAISGSGGTTYYADSVKWRFTISRDNAKNTVYLQMNSQKPEDTAVYYCNKTPRNLRILQHSSQSMDYWGQGTQVTVSS | high polyreactivity |
| QVQLVESAGGLVQAGGSLRLSCAASGFTFIGYVMGWYRQAPGKERELVAAITSGGDTNYADSVKGRFTISRDNAKNTVYLQMNSLKPEDTAVYYCNKGAYWVEYAYIEGELDYWGQGTQVTVSS | low polyreactivity |
| QVQLVESGGGLVQAGGSLRLSCAASGLTLSGYAMGWYRQAPGKERELVAAISSTGGSTYYADSVKGRFTISRDNAKNTVYLQMNSLKPEATAVYYCAKGYSPTRVRLRYPRYDTYNHWGQVTQVTVSS | high polyreactivity |
| QVQLVESGGGLVQAGGSLRLICAASGLTFVHNAMGWYRQAPGKERELVAAISSSGGRTYYADSVKARFTISRDNAKNTVYLQMNSLKPEDTAVYYCNKAAFNYYLYGYWGQGTQVTVSS | high polyreactivity |
| QDQLVESGGGLVQAGGSLRLSCAASGRIFSRNAMGWYRQAPGKERELVAAITWRGGSTYYADSVKGRFTISRDNAKNTVYLQMTSLKPEDTAVYYCNRDYRQYGYAYSGRYYWGLGTQVTVSS | high polyreactivity |
| QLQLQESGSGLEQAGGSLRLSCASSGYISLGDNMGWYRQAPGKEREFVATISVGGITYYVDSVKGRFTISRDIAKNTVYLQRNSLNPEDTAVYYCADLDIYYFRYYYWGQGTQVTVSS | low polyreactivity |
| QVHLVESGGGLVQAGGSLRLSCSASGSTFNTYAMGWYRQAPGKERELVAAITRGGGGTYYADSVKGRFTISRDNAKNTVYLQMNSLKPEDTAVYYCADKFRYSKYGYWGQGTQVTVSS | high polyreactivity |
| QVQLVESGGGLVQAGGSLRLSCAASGSIFFQYGMGWYRQAPGKEREFVAAISVSGGSTYYADSVKGRFTISRDNAKNTVYLQMNSLKPEDTAVYYCAAEFRGDTTSLVYASSYDYWGQGTQVTVSS | low polyreactivity |
| QVQLVESGGGLVQAGGSLRLSCAASGRIFYRYAMGWYRQAPGKERELVAAISSAGSTNYADSVKGRFTISRDNAKNTVYLQMNSLKPEDTAVYYCNTVTRWVGKLEYWGQGTQVTVSS | high polyreactivity |
| QVQLVETGGGLVQAGGSLSLSCAASGSILDLNAMGWYRQAPGKERELVAAISSGGGTYYADSVKGRFTISRDNAKNTVYLQMNSLKPEDTAVYYCNRVTRWTYNYWGQGTQVTVSS | high polyreactivity |
| QVHLVESGGGLVQAGGSLRLSCAASGSTFYENAMGWYIQAPGKERELVAGISRGGGSTYYADSVKGRFTISRDNAKNTVYLQMNSLKPEDSAVYYCAAGSRVQGGYWGQGTQVTVSS | low polyreactivity |
| QVQLVESGRGLVQAGGSLRLSCAASGFTQPANGMGWYRQAPGIERELVAAISFIAGSTYYADSVKGRFTISRDNAKNTVYLQMNSLKPEDTAVYYCATLFPPSTIYDYWGQGTQVTVSS | low polyreactivity |
| QVQLVESGGGLVQAGGSLRLSCAASGSTLRRNAMGWYRPAPGKERELVAAISGTGGSTYYADSVKGRFTISRDNAKNTVYLQMNSLKPEDTAVYYCAATGWYYDYDYWGQGTQVTVSS | low polyreactivity |
| QVQLVESGGGLVQAGGSLRLSCAASGRIFYPYAMGWYRQAPGKERELVAAISRSGGSTYYADTVKGRFTISRDNAKNTVYLQMNSLKPEDTAVYYCAAEVVYFYSDAHIGYVDYEYWGQGTQVTVSS | low polyreactivity |

| Sequence | polyreactivity (PSR sort gate) |
| --- | --- |
| QVQLVESGGGLVQAGGSLRLSCAASGSIFAVYAMGWYRQAPGKERELVASISRRGGSTYYADSVKGRFTISRDNAKNTVYLQMNSLKPEDTAVYYCAATGRRGYGYGYWGQGTQVTVSS | high polyreactivity |
| QVQLVESGGGLVQAGGSLRLSCAASGRTFRLYAMGWYIQAPGKERELVAAISSTGSTYYADSVKGRFTISLDNAKNTVYLQMNSLKPEDTAVYYCNAKLPVTSLKFDYYYWGQGSQVTVSS | high polyreactivity |
| QVQLVESGGGLVQAGGSLRLSCAASGSIFEPYTMGWYRQAPGKERELVAAITGSGCSKFYADSVKGRFTISRDNAKNTVYLQMNSLKPEDTGVYYCNAYAYPYTDVDYWGQGTQVTVSS | low polyreactivity |
| QVQHVESGGGLVQSGGSLRLSCAASGSIFGKYSMGWYRQAPGKERELVAAISDSGSITYYADSVKGRLTISRDNAMYTFYLQMNSLKPEDTAVYYCAAEVNYYQRFKYEYWGQGTQVTVSS | high polyreactivity |
| QVQLVESGGGLVQAGGSLRLSCAASGRNFFTYAMGWYRQAPGKERELVAAIDRSGTSTNYADSVKGRFTISRDNANNTVYLHMHSLKPEDTAVYYCAARPNPYYDEMDYWGQGTQVTVSS | low polyreactivity |
| QVQLVESGGGLVQAGGSLRLSCAASGSIYVPNDMGWYRQAPGKEREFVAAITESDGSTYYADSVKGRFTISRDNAKNTVYLQMNSLKPEDTAVYYCATDSTGVTIVHFDYWGQGTQVTVSS | low polyreactivity |
| QVQLQESGGGLVQAGGSLRLSCAASGSISHYIFMGWYRQAPGKEREFVAGIGYGGTTNYADSVKGRFTISRDNAKNTVYLQMNSLKPEDTAMYYCAAREATEFYLYYWGQGTQVTVRS | low polyreactivity |
| QVQLVESGGGLVQAGGSLRLSCAASGRIFHRNAMGWYRQAPGKERELVATIRGNGGSTYYADSVKGRFTISRDNAKNTVYLQMNSLKPEDTAVYYCALDAQGYGGWWTYSRFYSWGQGTQVTVSS | high polyreactivity |
| QVQLVESGGGLVQAGCSLRLSCAASGSTFWFNGMGWYRQAPGKERELVAVITFSTGSTSYADSVKGRFTISRDDAKNTVYLQMNSLKAEDTAGYYCAAEYVIYYCFEWLDLDYWGQGTQVTVSS | high polyreactivity |
| QVQLVESGGGLVKAGGSLRLSCAASGSIFYSYAMGWYRQAPGKERELVAAITDSGDSTYYADSVKGRFTISRDYAKNTVYLQMNSLKPEDTAVYYCAAGFYPYYYWGLGTQVTVSS | low polyreactivity |
| QVQLVESGGGLVQAGGSLRLSCAASGFTFAYYVMGWYRQAPGKERELVAAITRSGDITSYADSVKGRFTISRDNAKNTVYLQMNSLKPEDTAVYYCNARLGYQSRRYNYWGQGTQVTVSS | high polyreactivity |
| QVQLVESGRGLVQAGGSLRLSCAASGRIFRYYAMGWYRQAPGKERELVATITDGGSTSYADSVKGRFTISRDNAKNTVYLQMNSLKPEDTAVYYCARDPLPSYWKVWSRPTFDYWGQGTQVTVSS | low polyreactivity |
| QVQLEESGGGLVQAGGSLRLSCAASVSIFESYAKGWNRQAPGKEREFVAAISDSGADTYYADSVKGRFTISRDNAKNTVYLQMNCLKPEDTAVYYCATDDYFSSYGYFLDGYWGQGTQVTVSS | low polyreactivity |
| QVHLVESGGGLVQAGRSLRLSCAASGFIFKPYAMVRYRQAPGKERELVAAITVNGGTTYYADSVKARFTISRDNAKNTVYLQMNSLKPEDTAVYYCNRGRPGGPSWYHYDYWGQGTQVTVSS | high polyreactivity |
| QVQLVASGGGLVQTGGSLRLSCAASGSTCVWYTIGWYRQAPGKERELVADISRSGGSTYYADSVKGRFTISRDNAKKTIYLQKNSLKAEDTAVYYCARYGYVYNTREPPKVVTFDYSGQGTQVTVSS | high polyreactivity |
| QVQLVESGGGLVQARGSLRLSCAASGIIFYSYAMGWYRQAPGKEREFVAAITNSDGSTYYADSVKGRFTISRDNAKNTVYLQMNSLKPEDTAVYMYYWGQGTQVTVSS | low polyreactivity |
| QVQLVESGGGLVQAGGSLRLSCAASGSIFSTYAMGWYRQAPGKERELVAAISKSGGSTYYADSVKGRFTISRDNAKNTVYLQMNSLKPEDTAVYYCAATRWYGYKRWGYDYWGQGTQVTVSS | high polyreactivity |
| QVQLVESGGGLVQAGGTLRISCAASGRIYAGYVMGWYRQAPRKERELVAAISGSGAYTYYADSVKGRFTISRDYAKNTVYLQMNRLKPEDSAVYYCAADKPGIFSRFDYWGQGTQVSVSS | low polyreactivity |
| QVQLVESGGGLVQAGGSLRLSCAASGRIFSYYAMGWYRQAPGKERELVAAITSAGGTNYADSVKGRFTISRDNAKNTVYLQMNSLNPEDTAVYYCAAAKRDFVEYDYWGQGTQVTVSS | low polyreactivity |
| QVQLVESGGGLVQAGGSLRLSCAASGRIFYVYTMGWYRQAPGKERELVAAITWRGGSTYYADSVKGRFTISRDNAKNTVYLQMNSLKPEDTAVYYCATAQWVGYWDDYWGQGTQVTVSS | high polyreactivity |
